Results taken from patent US12404346B2, “Anti-naloxone and anti-naltrexone monoclonal antibodies and methods of production and use thereof” (Siemens Healthcare Diagnostics Inc., priority 2019, dated 2025).

B1: 180C 2A12: anti-naltrexone monoclonal antibody generated using naltrexone-3-Val-mcKLH; heavy chain SEQ ID NO:1, light chain SEQ ID NO:5 (antibody)
heavy: MGWSWIFLFLLSGTAGVHCQVQLQQSGPELVKPGGSVKLSCKASGYIFNDYTIHWMKQSPGQGLEWIGWMNRRSFNTMYNDKFKGKATMTVDKSSSTAYIQLSSLTSDDSAVYFCVRDVYDNLDYWGQGTSVTVSSAKTTPPSVYPLAPGSAAQTNSMVTLGCLVKGYFPEPVTVTWNSGSLSSGVHTFPAVLQSDLYTLSSSVTVPSSTWPSETVTCNVAHPASSTKVDKKIVPRDCGCKPCICTVPEVSSVFIFPPKPKDVLTITLTPKVTCVVVDISKDDPEVQFSWFVDDVEVHTAQTQPREEQFNSTFRSVSELPIMHQDWLNGKEFKCRVNSAAFPAPIEKTISKTKGRPKAPQVYTIPPPKEQMAKDKVSLTCMITDFFPEDITVEWQWNGQPAENYKNTQPIMDTDGSYFIYSKLNVQKSNWEAGNTFTCSVLHEGLHNHHTEKSLSHSPGK
light: MKLPVRLLVLMFWIPASSSDVLMTQTPLSLPVSLGDQASISCRSSQSIVHSNGNTYLEWYLQKPGQSPRLLIYKVSNRFSGVPDRFSGSGSGTDFTLRISRVEAEDLGLYYCFQGSHVPLTFGAGTKLELKRADAAPTVSIFPPSSEQLTSGGASVVCFLNNFYPRDINVKWKIDGSERQNGVLNSWTDQDSKDSTYSMSSTLTLTKDEYERHNSYTCEATHKTSTSPIVKSFNRNEC
modifications: Amino Acid sequence of heavy chain of monoclonal antibody SHC 004; Amino acid sequence of Light Chain of monoclonal antibody SHC 004
B2: 179A 6H6: anti-naloxone monoclonal antibody generated using naloxone-3-Val-mcKLH; heavy chain SEQ ID NO:221, light chain SEQ ID NO:225 (antibody, V domains shown)
VH: MYLGLNCVIIVFLLKGVQSEVKLEESGGGLVPPGGSMKLSCSVSGFTFSDAWIDWVRQSPEKGLEWIAESRNKANNYAIYYTESVKGRFTISRDDSKSRVYLQMNNLRVEDTGIYYCTGPDYDSYWGGTLVTVSA
VL: MEFQTQVFVFVLLWLSGVDGDVVMTQSQKIMSTSVGDRVSITCKASQNVRTAVTWYQLKPGQSPKALIYLASNRHTGVPDRFRGSGSGTDFTLTIINVQSEDLADYFCLQHWNYPLTFGAGTKLELK
modifications: Amino acid sequence of heavy chain of monoclonal antibody 179A 6H6; Amino acid sequence of light chain of monoclonal antibody 179A 6H6
B3: 180A 3D3: anti-naltrexone monoclonal antibody generated using naltrexone-3-Val-mcKLH; heavy chain SEQ ID NO:21, light chain SEQ ID NO:25 (antibody)
heavy: MYLGLNCVFIVFLLKGVQSEVNLEESGGGLVQPGGSMKLSCVASGFTFSNYWMNWVRQSPERGLEWVAEISLKSYNYATHYAESVKGRFTISGDESKNSVYLQMNNLRAEDTGIYFCTRGDSYALDYGQRTLVTVSS
light: MEFQTQVLMSLLLCMSGACADIVMTQSPTFLAVTVSKKVTISCTASESLYSSKHKVHYLAWYQKKPEQSPKLLIYGASNRYIGVPDRFTGSGSGTDFTLTISSVQVEDLTHYYCAQFYSYPYTFGGGKLEIK
modifications: Amino Acid sequence of heavy chain of monoclonal antibody 180A 3D3; Amino Acid sequence of light chain of monoclonal antibody 180A 3D3
B4: 179B 9E7: anti-naloxone monoclonal antibody generated using naloxone-3-Val-mcKLH; heavy chain SEQ ID NO:241, light chain SEQ ID NO:245 (antibody)
heavy: MYLGLNCVIIVFLLKGVQSEMKLEESGGGLVQPGGSMKLSCTASGFTFSDAWMDWVRQSPEKGLEWVAEIRNKAYNHATYYAESVRGRFTISRDDSKSKMFLEMNSLRPEDTGIYYCIGGIWTDFDYGQGTTLTVSS
light: MESQTQVFVYMLLWLSGVDGDIVMTQSQKFMSTSVGDRVSVTCKASQNVGINVAWYQQKSGQPPKALIYSASSRYSGVPDRFTGSGSGTDFTLTISNVQSEDLAEYFCHQYNNYPLTFGAGTKLDLK
modifications: Amino acid sequence of heavy chain of monoclonal antibody 179B 9E7; Amino acid sequence of light chain of monoclonal antibody 179B 9E7
B5: 179B 10A7: anti-naloxone monoclonal antibody generated using naloxone-3-Val-mcKLH; heavy chain SEQ ID NO:201, light chain SEQ ID NO:205 (antibody, V domains shown)
VH: MGWSWIFLFLLSGTAGVHCQIQLQQSGPELVKPGASVKISCKASDYSFTKSYINWVKQRPGQGLEWIGWIYPGSANIKYNEKFRDKATLTVDTSSNTAYIQLSSLTSEDSAVYFCEMGTHYTYDVMDWGQGTSVTVSS
VL: MEFQTQVFVFVLLWLSGVDGDIVMTPSQKFMSTSVGDRVSITCKASQNVRTSVGWYQQKPGQSPKPLIYAASNRHTGVPDRFTGSGSGTDFSLTITNVQSEDQADYFCLQHWNYPWTFGGGTKLEIK
modifications: Amino acid sequence of heavy chain of monoclonal antibody 179B 10A7; Amino acid sequence of light chain of monoclonal antibody 179B 10A7

How the values were obtained:
[1] = Randox naloxone assay, competitive chemiluminescent immunoassay; cited from earlier work
[2] = inhibition ELISA, anti-naltrexone monoclonal antibodies against key opioids (FIG. 8); type: binding; settings: free drug 20 μg/mL, plates coated with ovalbumin conjugate
Excerpt: (§1) Mice with good anti-drug antibody titers and binding to free drug in the ELISA inhibition assays were selected to proceed with generation of monoclonal antibodies, in a similar manner to that described in U.S. Pat. No. 9,815,907 (issued to Sharma et al. on Nov. 14, 2017). In particular, mice with highest titers and best specificity were boosted three days prior to fusion. On the day of fusion, spleen cells were harvested from these mice and were fused with myeloma cell line P3X63Ag8.653 using PEG-assisted fusion protocols. After about ten days, hybridoma supernatants were screened for anti-naloxone and anti-naltrexone antibodies using a plate ELISA (direct binding and inhibition ELISA for specificity). Positive clones were further expanded and sub-cloned, and supernatants were purified using a Protein A SEPHAROSE® (GE Healthcare, Chicago, IL) column. Purified antibody samples were tested using ELISA for binding to the immunogen (i.e., a conjugate of drug-carrier protein) and to free opioids.
(§2) Antibody solution (Immune mouse bleeds or hybridoma clones supernatant or purified antibody) was screened using an inhibition ELISA procedure according to the following protocol. […] Plate coating was performed for 1 hour or more at room temperature or overnight at about 2° C. to 8° C. The plates were then flicked dry and blocked with 200 μL per well of blocking buffer solution (0.5% Casein solution in PBS containing 0.05% TWEEN® 20 surfactant (Croda International PLC, Snaith, United Kingdom). Plate blocking was performed by incubation for 30 minutes or more at room temperature with plate shaking. The plates were washed using a plate washer (BioTek®, Winooski, VT) with plate stacker with the washing buffer being MILLIQ® water (Millipore Corporation, Billerica, MA) containing 0.05% TWEEN® 20. The monoclonal antibody to be screened was then added to each well along with free drug as follows: 25 μL per well of appropriately diluted culture supernatant (or antibody solution) and added 25 μL of 20 μg/mL of free drug. Incubation was performed for about 1 hour at room temperature with plate shaking. The plate was washed. An enzyme conjugate (goat anti-mouse IgG coupled to HRP diluted in blocking buffer diluted to 1:3000) was added at 50 μL per well. Incubation was performed for about 1 hour at room temperature with shaking. The plate was then washed, and a chromogenic solution (TMB from Moss Substrates, Pasadena MD) was added at a volume of 100 μL per well. If a desired antibody was present in the hybridoma supernatant, then a decrease in optical density was observed compared to the well containing no free drug. The plates were read at 650 nm wavelength using an ELISA plate reader (Molecular Devices, San Jose, CA). Note: appropriate dilution of antibody solution was determined by performing a titration ELISA. The antibody dilution was chosen where around 1.0 optical density was observed.

[3] = naloxone and naltrexone specific immunoassays (FIG. 9, FIG. 10); type: binding; settings: FIG. 9 and FIG. 10
Excerpt: An EMIT® II (enzyme multiplied immunoassay, Siemens Healthineers, Newark, DE) Plus Naloxone and/or Naltrexone Assay is a homogeneous enzyme immunoassay technique used for the analysis of specific compounds in human urine. The assay is based on competition between drug in the specimen and drug labeled with glucose-6-phosphate dehydrogenase (rG6PDH) for antibody binding sites. Enzyme activity decreases upon binding to the antibody, so the drug concentration in the specimen can be measured in terms of enzyme activity. Active enzyme converts nicotinamide adenine dinucleotide (NAD) to NADH in the presence of glucose-6-phosphate (G6P), resulting in an absorbance change that is measured spectrophotometrically.
The EMIT® assay format comprises an antibody/substrate reagent, known as reagent 1. This reagent includes the antibody as well as buffers, preservatives, and stabilizers for the assay. The EMIT® assay format also comprises an enzyme reagent, known as reagent 2. This reagent includes the conjugate as well as buffers, preservatives, and stabilizers for the assay.

[4] = hydrocodone assay with antibody blocker (FIG. 13); settings: cutoff 300 ng/ml
[5] = inhibition ELISA, anti-naloxone monoclonal antibodies against key opioids (FIG. 7); type: binding; settings: free drug 20 μg/mL, plates coated with ovalbumin conjugate
Excerpt: as §1, §2

[6] = opiate enzyme multiplied immunoassay with antibody blocker (FIG. 11, FIG. 12); settings: cutoff 300 ng/mL; FIG. 11 and FIG. 12

| Molecule | specificity for naltrexone over the other key opioids tested in the inhibition ELISA assay [2] | detection of naloxone and naltrexone in specific assays [3] | specificity for naloxone over the other key opioids tested in the inhibition ELISA assay [5] | change of naloxone/naltrexone cross reactivity response in the presence of the antibody blocker [6] | other results |
| --- | --- | --- | --- | --- | --- |
| C=CCN1CC[C@]23c4c5ccc(O[C@@H]6O[C@H](C(=O)O)[C@@H](O)[C@H](O)[C@H]6O)c4O[C@H]2C(=O)CC[C@@]3(O)[C@H]1C5 [naloxone 3-B-D glucuronide] | – | – | – | – | level of cross-reactivity [1]: 70.6% |
| B1 | good specificity for naltrexone | capable of detecting naloxone in addition to naltrexone, albeit at a lower specificity compared to naltrexone | – | – | effect of the antibody blocker on amount of naloxone and naltrexone giving a negative response [4]: increase the amount of naloxone and naltrexone that produces a negative response to the cutoff |
| B2 | – | detects both naloxone and naltrexone at substantially the same specificity | good specificity for naloxone | cross reactivity of naloxone changes from a positive to a negative response to the cutoff | – |
| B3 | good specificity for naltrexone | – | – | cross reactivity of naloxone and naltrexone changes from a positive to a negative response to the cutoff | – |
| B4 | – | – | good specificity for naloxone | – | – |
| B5 | – | – | good specificity for naloxone | – | – |
